Measurements published in publication PMC2172161 (The Journal of Cell Biology, 2004).
Changes are numbered by the printed parent chain.

T1: Cdc12-His6 (Saccharomyces cerevisiae, UniProt P32468)
T1 sequence (P32468 1-407): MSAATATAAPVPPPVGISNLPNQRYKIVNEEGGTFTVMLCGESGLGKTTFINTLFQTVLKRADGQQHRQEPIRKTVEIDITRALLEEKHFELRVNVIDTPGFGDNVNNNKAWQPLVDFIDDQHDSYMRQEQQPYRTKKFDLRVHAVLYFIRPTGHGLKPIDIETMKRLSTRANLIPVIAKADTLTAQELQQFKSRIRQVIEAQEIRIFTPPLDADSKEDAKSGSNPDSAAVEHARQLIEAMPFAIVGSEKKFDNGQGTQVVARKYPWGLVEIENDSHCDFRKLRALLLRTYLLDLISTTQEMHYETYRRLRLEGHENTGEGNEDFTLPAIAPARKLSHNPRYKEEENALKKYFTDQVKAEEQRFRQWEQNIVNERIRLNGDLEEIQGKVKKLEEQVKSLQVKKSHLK

T2: Cdc10 (Saccharomyces cerevisiae, UniProt P25342)
T2 sequence (P25342 1-322): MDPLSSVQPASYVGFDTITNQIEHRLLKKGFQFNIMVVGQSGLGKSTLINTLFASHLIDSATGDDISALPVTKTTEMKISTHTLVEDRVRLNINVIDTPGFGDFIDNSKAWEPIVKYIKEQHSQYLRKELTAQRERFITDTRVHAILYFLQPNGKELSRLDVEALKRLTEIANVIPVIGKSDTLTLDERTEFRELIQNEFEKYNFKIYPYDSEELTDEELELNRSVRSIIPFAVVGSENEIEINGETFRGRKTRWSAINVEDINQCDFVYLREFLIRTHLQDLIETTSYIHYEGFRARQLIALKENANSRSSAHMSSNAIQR

T3: Cdc12ΔC-His6 (Cdc12(Δ339–407)-His6) (Saccharomyces cerevisiae, UniProt P32468)
T3 sequence (P32468 1-338): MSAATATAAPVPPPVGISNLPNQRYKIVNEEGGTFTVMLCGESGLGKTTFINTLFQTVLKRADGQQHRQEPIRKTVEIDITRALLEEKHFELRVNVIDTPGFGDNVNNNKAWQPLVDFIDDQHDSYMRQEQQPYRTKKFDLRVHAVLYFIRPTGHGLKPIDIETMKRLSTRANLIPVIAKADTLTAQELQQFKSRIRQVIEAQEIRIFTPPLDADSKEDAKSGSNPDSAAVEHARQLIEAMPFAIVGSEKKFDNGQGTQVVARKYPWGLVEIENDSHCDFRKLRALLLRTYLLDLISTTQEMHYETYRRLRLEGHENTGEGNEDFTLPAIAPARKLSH

T4: GST-Cdc12 (S. cerevisiae, UniProt P32468 1-407)
T4 sequence: T1 sequence (P32468 1-407)

T5: GST-HSL1(833-1518) (S. cerevisiae, UniProt P34244 833-1518)
T5 sequence: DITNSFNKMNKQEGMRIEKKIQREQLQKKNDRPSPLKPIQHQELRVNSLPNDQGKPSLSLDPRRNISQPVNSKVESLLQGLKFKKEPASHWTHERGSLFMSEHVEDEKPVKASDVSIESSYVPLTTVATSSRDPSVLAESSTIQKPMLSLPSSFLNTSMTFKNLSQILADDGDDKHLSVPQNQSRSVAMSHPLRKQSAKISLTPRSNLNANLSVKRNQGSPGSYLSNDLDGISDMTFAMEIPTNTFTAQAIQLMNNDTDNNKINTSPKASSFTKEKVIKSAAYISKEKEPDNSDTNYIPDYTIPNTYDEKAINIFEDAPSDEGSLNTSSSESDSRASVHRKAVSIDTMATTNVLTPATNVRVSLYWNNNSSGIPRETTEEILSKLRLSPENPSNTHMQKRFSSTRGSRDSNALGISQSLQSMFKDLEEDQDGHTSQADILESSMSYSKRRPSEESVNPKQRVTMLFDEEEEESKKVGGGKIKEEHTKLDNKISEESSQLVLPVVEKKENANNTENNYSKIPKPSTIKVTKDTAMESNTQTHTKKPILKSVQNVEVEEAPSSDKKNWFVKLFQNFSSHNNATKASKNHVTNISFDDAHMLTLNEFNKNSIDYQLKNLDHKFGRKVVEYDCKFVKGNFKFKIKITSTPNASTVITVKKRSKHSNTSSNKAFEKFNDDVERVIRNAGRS

T6: GST-Cdc3 (S. cerevisiae, UniProt P32457 1-520)
T6 sequence: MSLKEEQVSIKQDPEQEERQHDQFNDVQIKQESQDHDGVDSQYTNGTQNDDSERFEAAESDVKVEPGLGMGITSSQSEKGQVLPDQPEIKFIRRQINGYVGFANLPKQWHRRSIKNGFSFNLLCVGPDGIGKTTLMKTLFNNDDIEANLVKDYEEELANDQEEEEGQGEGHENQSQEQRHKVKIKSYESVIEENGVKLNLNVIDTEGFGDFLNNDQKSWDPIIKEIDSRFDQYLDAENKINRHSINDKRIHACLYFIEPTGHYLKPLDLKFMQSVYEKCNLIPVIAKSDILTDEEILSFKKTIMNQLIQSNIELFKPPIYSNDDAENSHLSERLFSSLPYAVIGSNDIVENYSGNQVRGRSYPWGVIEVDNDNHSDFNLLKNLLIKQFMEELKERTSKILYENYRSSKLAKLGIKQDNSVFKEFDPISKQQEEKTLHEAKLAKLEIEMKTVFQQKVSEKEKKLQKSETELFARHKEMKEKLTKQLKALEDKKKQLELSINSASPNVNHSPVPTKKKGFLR

T7: GST-Cdc11 (S. cerevisiae, UniProt P32458 1-415)
T7 sequence: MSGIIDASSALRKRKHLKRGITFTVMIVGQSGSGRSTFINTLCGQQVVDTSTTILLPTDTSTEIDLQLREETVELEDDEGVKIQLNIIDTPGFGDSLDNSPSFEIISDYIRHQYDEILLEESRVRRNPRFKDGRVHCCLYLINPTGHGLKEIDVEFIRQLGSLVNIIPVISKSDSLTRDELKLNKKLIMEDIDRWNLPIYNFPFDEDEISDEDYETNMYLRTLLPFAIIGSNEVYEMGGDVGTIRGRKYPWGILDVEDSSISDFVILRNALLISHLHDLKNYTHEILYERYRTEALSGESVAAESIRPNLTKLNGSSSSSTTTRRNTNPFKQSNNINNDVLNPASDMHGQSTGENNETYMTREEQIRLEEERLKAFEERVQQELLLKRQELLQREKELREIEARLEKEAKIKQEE

T8: Cdc12(T48N)-His6 (S. cerevisiae, UniProt P32468 1-407, T48N)
T8 sequence: T1 sequence (P32468 1-407) with T48N

B1: Cdc12-His6 (natural protein)
chain: T1 sequence (P32468 1-407)
B2: GST-Cdc10 (natural protein)
chain: T2 sequence (P25342 1-322)

Tests used:
Cdc12-His6 [1] = biological target: T1, Cdc12-His6; assay: GTPase, phosphate release from γ[…]GTP; assay type: biochemical; conditions: labelled compound
[2] = biological target: His6Cdc12–Cdc3–Cdc10–Cdc11 complex (Saccharomyces cerevisiae, UniProt P25342+P32468); assay: binding of α[…]GTP to complex on Ni2+-NTA beads; conditions: labelled compound
Cdc10 = biological target: T2, Cdc10; assay: GTPase, phosphate release from γ[…]GTP; assay type: biochemical; conditions: labelled compound
[3] = biological target: T3, Cdc12ΔC-His6 (Cdc12(Δ339–407)-His6); assay: filter binding of radiolabelled GTPγS; conditions: labelled compound
Cdc12-His6 [4] = biological target: T1, Cdc12-His6; assay: filter binding of radiolabelled GTPγS; conditions: labelled compound
GST-Cdc12 = biological target: T4, GST-Cdc12; assay: pull-down
GST-HSL1(833-1518) = biological target: T5, GST-HSL1(833-1518); assay: pull-down
GST-Cdc3 = biological target: T6, GST-Cdc3; assay: pull-down
GST-Cdc11 = biological target: T7, GST-Cdc11; assay: pull-down
Cdc12(T48N)-His6 = biological target: T8, Cdc12(T48N)-His6; assay: pull-down
Cdc12-His6 [5] = biological target: B1; assay: pull-down

## Nc1nc2c(ncn2[C@@H]2O[C@H](COP(=O)(O)OP(=O)(O)OP(=O)(O)O)[C@@H](O)[C@H]2O)c(=O)[nH]1 [GTP]
Cdc12-His6 [1]
  GTPase, phosphate release from γ[32P]GTP: Only Cdc10 and Cdc12 displayed detectable GTPase activity above the background control
[2]
  binding of α[32P]GTP to complex on Ni2+-NTA beads: GTP binding to the His6Cdc12–Cdc3–Cdc10–Cdc11 complex
Cdc10
  GTPase, phosphate release from γ[32P]GTP: Only Cdc10 and Cdc12 displayed detectable GTPase activity above the background control

## Nc1nc2c(ncn2[C@@H]2O[C@H](COP(=O)(O)OP(=O)(O)OP(O)(O)=S)[C@@H](O)[C@H]2O)c(=O)[nH]1 [GTPγS]
[3]
  filter binding of radiolabelled GTPγS: Both full-length Cdc12 and Cdc12ΔC formed stable complexes with GTPγS over time
Cdc12-His6 [4]
  filter binding of radiolabelled GTPγS: Both full-length Cdc12 and Cdc12ΔC formed stable complexes with GTPγS over time

## B1
GST-Cdc12
  binding result: binds
GST-HSL1(833-1518)
  binding result: binds
GST-Cdc3
  binding result: binds
GST-Cdc11
  binding result: binds

## B2
Cdc12(T48N)-His6
  binding result: binds
Cdc12-His6 [5]
  binding result: binds
